Test results taken from patent publication US20060199194A1.

Columns and labels:
[1] = target: TAU-412 target protein (human) (UniProt P10636); test: sandwich Immuno Q-Amp assay: capture MN1010, TAU-412 10 ng per well, biotin MN1000 reporter, avidin-biotin-MNVplus template, Q-beta replicase, SYBR Green fluorescence; Startingblock blocking
[2] = target: TAU-412 target protein (human) (UniProt P10636); test: sandwich Immuno Q-Amp assay: capture MN1010, TAU-412 10 ng per well, biotin MN1000 reporter, avidin-biotin-MNVplus template, Q-beta replicase, SYBR Green fluorescence; Superblock blocking

Sequence of UniProt P10636 (P10636 other isoform, or with tags, fused parts or gaps): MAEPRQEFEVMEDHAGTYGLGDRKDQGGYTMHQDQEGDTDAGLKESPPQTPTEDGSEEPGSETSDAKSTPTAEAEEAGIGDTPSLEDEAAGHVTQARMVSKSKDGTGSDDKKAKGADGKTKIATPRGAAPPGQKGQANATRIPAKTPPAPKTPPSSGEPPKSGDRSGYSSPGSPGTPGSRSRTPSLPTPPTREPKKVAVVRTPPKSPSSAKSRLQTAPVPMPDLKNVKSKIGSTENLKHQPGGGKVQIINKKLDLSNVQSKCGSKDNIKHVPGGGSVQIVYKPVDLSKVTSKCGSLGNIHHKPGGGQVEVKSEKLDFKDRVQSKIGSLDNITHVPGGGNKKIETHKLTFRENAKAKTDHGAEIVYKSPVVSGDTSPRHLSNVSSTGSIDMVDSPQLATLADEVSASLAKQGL

RT (response time, starting block blocking) [1]: 13.5 min | RT (response time, Superblock blocking) [2]: 15 min
Substance: anti-TAU, biotinylated antibody MN-1000 (Pierce, #MN1000B)
